In US20040266686A1 (Regeneron, published 2004):

Assays:
human VEGF165 [1] = molecular target: T1, human VEGF165 (human, UniProt P15692-4 27-191); experiment: cell-based or functional assay
human VEGF165 [2] = molecular target: T1, human VEGF165; experiment: size exclusion chromatography with on-line light scattering
Description: (a) Size Exclusion Chromatography (SEC) with On-Line Light Scattering. Size exclusion chromatography column with a MiniDawn on-line light scattering detector (Wyatt Technology, Santa Barbara, Calif.) and refractive index (R1) detectors (Shimadzu, Kyoto, Japan) was used to determine the molecular weight (MW) of the receptor-ligand complex. Samples were injected onto a Superose 12 HR 10/30 column (Pharmacia) equilibrated in PBS buffer and eluted with the same buffer at flow rate 0.5 ml/min. at room temperature. […] MW was calculated from LS and R1 signals. The same procedure was used to determine MW of the individual components of the receptor-ligand complex.

human VEGF165 [3] = molecular target: T1, human VEGF165; experiment: size exclusion chromatography (Superose 6), complex purified, dissociated in 6M guanidine hydrochloride, components quantified
Description: (b) Size Exclusion Chromatography. […] The receptor-ligand complex was then incubated in a buffer containing 6M guanidine hydrochloride in order to dissociate it into its component proteins.

human VEGF165 [4] = molecular target: T1, human VEGF165; experiment: size exclusion chromatography under dissociative conditions (6M GuHCl), standard curves
Description: (a) Size Exclusion Chromatography (SEC) under native conditions. […] The sample was eluted with the same buffer at flow rate 40 μl/min. at room temperature. […] Fractions eluted between 1.1 and 1.2 ml were combined and guanidinium hydrochloride (GuHCl) was added to a final concentration 4.5M to dissociate the complex.
(b) Size Exclusion Chromatography (SEC) under dissociative conditions. To separate the components of the receptor-ligand complex and to determine their molar ratio, 50 μl of dissociated complex as described supra was loaded onto a Superose 12 PC 3.2/30 equilibrated in 6M GuHCl and eluted with the same solution at a flow rate 40 μl/min. at room temperature.
The stoichiometry of the receptor-ligand complex was determined from the peak area or the peak height of the components. […] To obtain a standard curve, four different concentrations (0.04 mg/ml−0.3 mg/ml) of either component were injected onto a Pharmacia Superose 12 PC 3.2/30 column equilibrated in 6M guanidinium chloride and eluted with the same solution at flow rate 40 μl/min. at room temperature. The standard curve was obtained by plotting peak area or peak height vs protein concentration.

T1 sequence (P15692 other isoform, or with tags, fused parts or gaps limits assumed): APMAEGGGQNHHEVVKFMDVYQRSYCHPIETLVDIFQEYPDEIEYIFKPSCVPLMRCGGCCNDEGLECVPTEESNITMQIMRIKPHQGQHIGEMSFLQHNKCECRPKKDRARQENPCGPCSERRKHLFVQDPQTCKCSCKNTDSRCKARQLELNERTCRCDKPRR

Row | Binder | half maximal dose, VEGF165-induced cell proliferation (MG87 cells, MTS) (human VEGF165 [1]) [nM] | stoichiometry of the complex (human VEGF165 [2]) | ratio of VEGF165 to receptor in the complex (human VEGF165 [3]) | molar ratio of VEGF165:receptor (from the peak area) (human VEGF165 [4]) [mol/mol] | molar ratio of VEGF165:receptor (from the peak height) (human VEGF165 [4]) [mol/mol]
1 | Flt1(1-3)-Fc (Fc fusion, human, UniProt P17948 27-331, looked up, not shown: a dimerising Fc or GST) SKLKDPELSLKGTQHIMQAGQTLHLQCRGEAAHKWSLPEMVSKESERLSITKSACGRNGKQFCSTLTLNTAQANHTGFYSCKYLAVPTSKKKETESAIYIFISDTGRPFVEMYSEIPEIIHMTEGRELVIPCRVTSPNITVTLKKFPLDTLIPDGKRIIWDSRKGFIISNATYKEIGLLTCEATVNGHLYKTNYLTHRQTNTIIDVQISTPRPVKLLRGHTLVLNCTATTPLNTRVQMTWSYPDEKNKRASVRRRIDQSNSHANIFYSVLTIDKMQNKDKGLYTCRVRSGPSFKSVNTSVHIYDK | 2 | – | – | – | –
2 | Flt1D2.Flk1D3.Fc?C1(a) (Fc fusion, human, N-linked glycosylation: complete at Asn33, Asn193, Asn282; partial at Asn65 and Asn120 (peptide mapping numbering), domain: Ig domain 2;domain: Ig domain 3; Made in CHO cells, transiently or stably; also called R1R2; not shown: Fc?C1(a) portion) GRPFVEMYSEIPEIIHMTEGRELVIPCRVTSPNITVTLKKFPLDTLIPDGKRIIWDSRKGFIISNATYKEIGLLTCEATVNGHLYKTNYLTHRQTNTIIDVVLSPSHGIELSVGEKLVLNCTARTELNVGIDFNWEYPSSKHQHKKLVNRDLKTQSGSEMKKFLSTLTIDGVTRSDQGLYTCAASSGLMTKKNSTFVRVHEKGPG | 0.8 | 1 receptor:VEGF165 | 1 VEGF165:receptor | 1.16 | 1.1
3 | Flt1D2.VEGFR3D3.Fc?C1(a) (Fc fusion, not shown: a dimerising Fc or GST) GRPFVEMYSEIPEIIHMTEGRELVIPCRVTSPNITVTLKKFPLDTLIPDGKRIIWDSRKGFIISNATYKEIGLLTCEATVNGHLYKTNYLTHRQTNTIIDIQLLPRKSLELLVGEKLVLNCTVWAEFNSGVTFDWDYPGKQAERGKWVPERRSQQTHTELSSILTIHNVSQHDLGSYVCKANNGIQRFRESTEVIVHENGPG | 2 | – | – | – | –
